Measured values reported in the supplement of paper PMC10567573.

B1: TRIM9 (parent)
chain: PRNSCITCPQCHRSLILDDRGLRG

Variants of: B1
Test: protein stability index of a GFP-peptide fusion (GPS, HEK-293T) (PSI 1-6); higher = more stable
Details: c terminus: a fixed tail appended
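Further: lentivirally expressed fusions sorted by FACS into six bins by GFP to DsRed ratio, PSI derived from sequencing read proportions per bin multiplied by bin number.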

First: PRNSCITCPQCHMSLILDDRGLRG
Second: PRNSCITCPQCHHSLILDDRGLRG
The protein stability index of the first is lower: 1.77 for the first, 2.59 for the second.

Compared with PRNSCITCPQCHDSLILDDRGLRG, PRNSCITCPQCHYSLILDDRGLRG is lower in protein stability index: 3.33 for the first, 2.53 for the second.

Compared with PRNSCITCPQCHISLILDDRGLRG, PRNSCITCPQCHESLILDDRGLRG is higher in protein stability index: 1.95 for the first, 2.61 for the second.

First: PRNSCITCPQCHPSLILDDRGLRG
Second: PRNSCITCPQCHWSLILDDRGLRG
The protein stability index of the first is lower: 1.97 for the first, 2.42 for the second.

Going from PRNSCITCPQCHGSLILDDRGLRG to PRNSCITCPQCHSSLILDDRGLRG, the protein stability index rises from 2.37 to 2.9.

Going from PRNSCITCPQCHQSLILDDRGLRG to PRNSCITCPQCHFSLILDDRGLRG, the protein stability index falls from 2.63 to 2.09.

Going from PRNSCITCPQCHCSLILDDRGLRG to PRNSCITCPQCHKSLILDDRGLRG, the protein stability index falls from 4.16 to 1.95.

Going from PRNSCITCPQCHLSLILDDRGLRG to PRNSCITCPQCHVSLILDDRGLRG, the protein stability index rises from 1.57 to 2.2.

First: PRNSCITCPQCHASLILDDRGLRG
Second: PRNSCITCPQCHNSLILDDRGLRG
The protein stability index of the first is higher: 3.91 for the first, 2.49 for the second.

Going from PRNSCITCPQCHTSLILDDRGLRG to PRNSCITCPQCHRSLMLDDRGLRG, the protein stability index falls from 3.47 to 2.58.

Compared with PRNSCITCPQCHRSLELDDRGLRG, PRNSCITCPQCHRSLALDDRGLRG is lower in protein stability index: 3.16 for the first, 1.94 for the second.

Compared with PRNSCITCPQCHRSLHLDDRGLRG, PRNSCITCPQCHRSLKLDDRGLRG is higher in protein stability index: 1.97 for the first, 2.68 for the second.

Going from PRNSCITCPQCHRSLCLDDRGLRG to PRNSCITCPQCHRSLGLDDRGLRG, the protein stability index falls from 2.32 to 1.76.

First: PRNSCITCPQCHRSLPLDDRGLRG
Second: PRNSCITCPQCHRSLFLDDRGLRG
The protein stability index of the first is higher: 2.42 for the first, 1.69 for the second.

Going from PRNSCITCPQCHRSLDLDDRGLRG to PRNSCITCPQCHRSLNLDDRGLRG, the protein stability index falls from 2.64 to 2.49.

First: PRNSCITCPQCHRSLLLDDRGLRG
Second: PRNSCITCPQCHRSLQLDDRGLRG
The protein stability index of the first is lower: 2.38 for the first, 2.69 for the second.

First: PRNSCITCPQCIRSLILDDRGLRG
Second: PRNSCITCPQCGRSLILDDRGLRG
The protein stability index of the first is lower: 1.85 for the first, 2.68 for the second.

First: PRNSCITCPQCPRSLILDDRGLRG
Second: PRNSCITCPQCYRSLILDDRGLRG
The protein stability index of the first is higher: 2.52 for the first, 2.46 for the second.

Going from PRNSCITCPQCSRSLILDDRGLRG to PRNSCITCPQCDRSLILDDRGLRG, the protein stability index rises from 2.04 to 2.28.

First: PRNSCITCPQCTRSLILDDRGLRG
Second: PRNSCITCPQCARSLILDDRGLRG
The protein stability index of the first is lower: 1.38 for the first, 2.53 for the second.

Going from PRNSCITCPQCLRSLILDDRGLRG to PRNSCITCPQCVRSLILDDRGLRG, the protein stability index rises from 3.13 to 3.37.

First: PRNSCITCPQCCRSLILDDRGLRG
Second: PRNSCITCPQCKRSLILDDRGLRG
The protein stability index of the first is lower: 1.6 for the first, 2.69 for the second.

First: PRNSCITCPQCNRSLILDDRGLRG
Second: PRNSCITCPQCQRSLILDDRGLRG
The protein stability index of the first is higher: 2.16 for the first, 1.96 for the second.

First: PRNSCITCPQCMRSLILDDRGLRG
Second: PRNSCITCPQCFRSLILDDRGLRG
The protein stability index of the first is higher: 2.78 for the first, 2.2 for the second.

Compared with PRNSCITCPQCWRSLILDDRGLRG, PRNSCLTCPQCHRSLILDDRGLRG is higher in protein stability index: 2.07 for the first, 2.26 for the second.

First: PRNSCGTCPQCHRSLILDDRGLRG
Second: PRNSCTTCPQCHRSLILDDRGLRG
The protein stability index of the first is higher: 1.93 for the first, 1.89 for the second.

First: PRNSCQTCPQCHRSLILDDRGLRG
Second: PRNSCNTCPQCHRSLILDDRGLRG
The protein stability index of the first is lower: 2.16 for the first, 2.29 for the second.

Compared with PRNSCHTCPQCHRSLILDDRGLRG, PRNSCPTCPQCHRSLILDDRGLRG is higher in protein stability index: 2.46 for the first, 2.6 for the second.

Compared with PRNSCSTCPQCHRSLILDDRGLRG, PRNSCMTCPQCHRSLILDDRGLRG is higher in protein stability index: 2.02 for the first, 2.08 for the second.

First: PRNSCYTCPQCHRSLILDDRGLRG
Second: PRNSCITCPVCHRSLILDDRGLRG
The protein stability index of the first is higher: 2.72 for the first, 2.29 for the second.

Going from PRNSCITCPNCHRSLILDDRGLRG to PRNSCITCPKCHRSLILDDRGLRG, the protein stability index falls from 2.47 to 2.25.

Going from PRNSCITCPACHRSLILDDRGLRG to PRNSCITCPSCHRSLILDDRGLRG, the protein stability index rises from 2.37 to 2.46.

Going from PRNSCITCPCCHRSLILDDRGLRG to PRNSCITCPYCHRSLILDDRGLRG, the protein stability index rises from 1.95 to 3.29.

Compared with PRNSCITCPFCHRSLILDDRGLRG, PRNSCITCPMCHRSLILDDRGLRG is lower in protein stability index: 3 for the first, 2.04 for the second.

Going from PRNSCITCPRCHRSLILDDRGLRG to PRNSCITCPHCHRSLILDDRGLRG, the protein stability index rises from 2.36 to 2.62.

Going from PRNSCITCPLCHRSLILDDRGLRG to PRNSCITCPPCHRSLILDDRGLRG, the protein stability index rises from 1.89 to 2.02.

First: PRNSCITCPTCHRSLILDDRGLRG
Second: PRNSCITCPDCHRSLILDDRGLRG
The protein stability index of the first is higher: 2.52 for the first, 2.49 for the second.

First: PRNSCITCPECHRSLILDDRGLRG
Second: PRNSCITCPGCHRSLILDDRGLRG
The protein stability index of the first is lower: 1.53 for the first, 4.38 for the second.

First: PRNSCITCPICHRSLILDDRGLRG
Second: PRNSCITCPQTHRSLILDDRGLRG
The protein stability index of the first is lower: 2.05 for the first, 2.78 for the second.

Compared with PRNSCITCPQFHRSLILDDRGLRG, PRNSCITCPQVHRSLILDDRGLRG is lower in protein stability index: 2.38 for the first, 2.2 for the second.

Compared with PRNSCITCPQSHRSLILDDRGLRG, PRNSCITCPQLHRSLILDDRGLRG is lower in protein stability index: 2.43 for the first, 1.83 for the second.

Going from PRNSCITCPQWHRSLILDDRGLRG to PRNSCITCPQEHRSLILDDRGLRG, the protein stability index falls from 3.38 to 2.86.

First: PRNSCITCPQGHRSLILDDRGLRG
Second: PRNSCITCPQKHRSLILDDRGLRG
The protein stability index of the first is higher: 3.01 for the first, 2.62 for the second.

Going from PRNSCITCPQRHRSLILDDRGLRG to PRNSCITCPQAHRSLILDDRGLRG, the protein stability index falls from 2.71 to 2.29.

First: PRNSCITCPQHHRSLILDDRGLRG
Second: PRNSCITCPQIHRSLILDDRGLRG
The protein stability index of the first is lower: 2.51 for the first, 2.98 for the second.

Compared with PRNSCITCPQQHRSLILDDRGLRG, PRNSCITCPQDHRSLILDDRGLRG is higher in protein stability index: 2.16 for the first, 2.92 for the second.

Going from PRNSCITCPQPHRSLILDDRGLRG to PRNSCITCPQYHRSLILDDRGLRG, the protein stability index falls from 2.47 to 2.11.
